According to patent publication US20150275215, “NEUTRALIZING RNA APTAMERS AGAINST PDGFBETA AND USES THEREOF IN THE THERAPY AND DIAGNOSIS OF HYPERPROLIFERATIVE DISEASES” (CONSIGLIO NAZIONALE DELLE RICERCHE, published 2015):

B1: Gint4 (ssRNA)
RNA: GGGAGACAAGAAUAAACGCUCAAUCAUAAGAGGUAUCACAUUGUCGUGGGGCAUCGAGUAAAUGCAAUUCGACAGGAGGCUCACAACAGGC
modifications: 2'-F all pyrimidines

What was measured:
[1] = molecular target: PDGFRalpha extracellular domain (EC-PDGFRα) (Homo sapiens, UniProt P16234 P16234:24-528); assay: filter; no saturable binding detectable up to 1000 nM; settings: tags: soluble, R&D Systems; label: 5'-32P
Chain of PDGFRalpha extracellular domain (EC-PDGFRα) (P16234 24-528, one chain of several): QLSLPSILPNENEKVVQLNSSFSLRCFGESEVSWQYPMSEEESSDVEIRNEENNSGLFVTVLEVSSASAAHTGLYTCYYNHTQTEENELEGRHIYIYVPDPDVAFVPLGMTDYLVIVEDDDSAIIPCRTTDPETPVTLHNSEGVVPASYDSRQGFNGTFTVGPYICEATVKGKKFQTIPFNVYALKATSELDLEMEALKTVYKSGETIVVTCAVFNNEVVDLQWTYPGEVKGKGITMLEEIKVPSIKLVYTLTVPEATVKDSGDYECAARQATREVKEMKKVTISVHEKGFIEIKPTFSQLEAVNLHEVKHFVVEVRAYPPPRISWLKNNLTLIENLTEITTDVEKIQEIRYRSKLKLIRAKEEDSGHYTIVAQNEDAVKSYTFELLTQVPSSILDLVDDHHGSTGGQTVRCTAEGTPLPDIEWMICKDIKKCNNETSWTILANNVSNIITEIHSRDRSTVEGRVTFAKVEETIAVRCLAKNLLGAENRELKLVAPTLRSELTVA

[2] = molecular target: PDGFRbeta extracellular domain (EC-PDGFRβ) (Homo sapiens, UniProt P09619 P09619:33-532); assay: filter; 1 nM radiolabeled RNA, 1-1000 nM protein; unrelated aptamer background subtracted; settings: tags: soluble, R&D Systems; label: 5'-32P
Chain of PDGFRbeta extracellular domain (EC-PDGFRβ) (P09619 33-532, one chain of several): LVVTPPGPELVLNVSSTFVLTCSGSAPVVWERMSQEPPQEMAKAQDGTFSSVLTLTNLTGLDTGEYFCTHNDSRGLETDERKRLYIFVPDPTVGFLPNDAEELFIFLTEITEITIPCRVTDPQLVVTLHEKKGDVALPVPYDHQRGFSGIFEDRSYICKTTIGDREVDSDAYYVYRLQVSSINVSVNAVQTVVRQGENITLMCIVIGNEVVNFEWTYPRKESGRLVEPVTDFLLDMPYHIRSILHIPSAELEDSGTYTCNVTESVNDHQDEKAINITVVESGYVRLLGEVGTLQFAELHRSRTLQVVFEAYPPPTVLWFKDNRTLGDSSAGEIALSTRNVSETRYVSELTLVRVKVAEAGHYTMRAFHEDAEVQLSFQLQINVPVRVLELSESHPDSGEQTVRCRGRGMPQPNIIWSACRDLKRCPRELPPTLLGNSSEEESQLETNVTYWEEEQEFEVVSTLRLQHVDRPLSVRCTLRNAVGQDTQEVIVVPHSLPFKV

Binder	binding result [1]	Kd [2] [nM]
UGUCGUGGGGCAUCGAGUAAAUGCAAUUCGACA (ssRNA, 2'-F all pyrimidines) [Gint4.T]	no binding	9.6
B1		10.4
